Test results taken from patent CN112480258A (HUADAO SHANGHAI BIOMEDICAL CO LTD, dated 2021).

T1: Human IL-3Rα/CD123蛋白 (human, UniProt P26951 19-305, limits assumed)
T1 construct: Soluble antigen in the SPR mobile phase
T1 sequence (looked up): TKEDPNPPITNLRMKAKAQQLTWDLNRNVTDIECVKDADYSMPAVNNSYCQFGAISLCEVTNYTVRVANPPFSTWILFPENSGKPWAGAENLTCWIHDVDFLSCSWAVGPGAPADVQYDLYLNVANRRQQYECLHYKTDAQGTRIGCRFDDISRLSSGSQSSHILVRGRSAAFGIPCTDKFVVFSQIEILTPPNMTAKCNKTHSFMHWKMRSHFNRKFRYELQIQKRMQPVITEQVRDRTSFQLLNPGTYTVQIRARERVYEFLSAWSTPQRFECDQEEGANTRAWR


Target: T1, Human IL-3Rα/CD123蛋白
Assay: SPR (Biacore), antibody immobilised on the chip, antigen in the mobile phase

| Kd | koff | kon | Binder |
| --- | --- | --- | --- |
| 0.0466 nM | 1.42e-05 s⁻¹ | 305000 M⁻¹ s⁻¹ | CD123-9 VHH-mIgG2a Fc纳米抗体 (Fc fusion, also called 抗CD123 VHH抗体CD123-9; CD123-9抗体; not shown: mouse IgG2a Fc tag from vector C-4pCP.Stuffer-mCg2a-FC) EVQLVESGGGLVQPGGSLRLSCAASGFTFSSYDMSWVRQAPGKGLEWVSHIKPGPVGTDYTDSVKGRFTISRDNAKNTLYLQMDSLKTEDTAVYYCARGSRYSWNLDGPLRGQGTQVTVSS |
| 0.0551 nM | 1.62e-05 s⁻¹ | 295000 M⁻¹ s⁻¹ | CD123-12 VHH-mIgG2a Fc纳米抗体 (Fc fusion, also called 抗CD123 VHH抗体CD123-12; CD123-12抗体; not shown: mouse IgG2a Fc tag from vector C-4pCP.Stuffer-mCg2a-FC) EVQLVESGGDLVQPGGSLRLSCAASGFTFSSYDMSWVRQAPGKGLEWVSHIKPGPVGTDYTDSVKGRFTISRDNAKNTLYLQMDSLKTEDTAVYYCARGSRYSWNLDGPLRGQGTQVTVSS |
